Experimental data from US20250002594A1 (SHANGHAI EPIMAB BIOTHERAPEUTICS, published 2025).
Changes are numbered by the printed parent chain.

T1: recombinant human CD122 (human, UniProt P14784 27-239, limits assumed)
T1 construct: also called IL-2Rβ
T1 sequence (looked up): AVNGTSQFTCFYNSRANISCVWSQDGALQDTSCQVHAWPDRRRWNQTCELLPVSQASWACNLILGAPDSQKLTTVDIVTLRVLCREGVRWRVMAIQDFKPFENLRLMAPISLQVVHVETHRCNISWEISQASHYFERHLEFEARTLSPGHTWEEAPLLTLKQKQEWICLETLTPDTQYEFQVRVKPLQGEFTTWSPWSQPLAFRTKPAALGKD

T2: recombinant human CD132 (human, UniProt P31785 23-262, limits assumed)
T2 construct: also called IL-2Rγ
T2 sequence (looked up): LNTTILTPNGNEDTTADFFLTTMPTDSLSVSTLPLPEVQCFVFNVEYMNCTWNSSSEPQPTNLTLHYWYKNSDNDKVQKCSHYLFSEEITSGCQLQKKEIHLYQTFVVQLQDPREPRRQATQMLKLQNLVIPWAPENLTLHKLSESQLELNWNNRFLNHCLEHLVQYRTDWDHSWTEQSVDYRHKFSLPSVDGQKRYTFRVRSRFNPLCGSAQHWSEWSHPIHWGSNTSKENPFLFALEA

T3: human CD132 on HEK293 cells (human, UniProt P31785 23-369)
T3 construct: whole, on cells; also called cell surface CD132
T3 sequence (looked up): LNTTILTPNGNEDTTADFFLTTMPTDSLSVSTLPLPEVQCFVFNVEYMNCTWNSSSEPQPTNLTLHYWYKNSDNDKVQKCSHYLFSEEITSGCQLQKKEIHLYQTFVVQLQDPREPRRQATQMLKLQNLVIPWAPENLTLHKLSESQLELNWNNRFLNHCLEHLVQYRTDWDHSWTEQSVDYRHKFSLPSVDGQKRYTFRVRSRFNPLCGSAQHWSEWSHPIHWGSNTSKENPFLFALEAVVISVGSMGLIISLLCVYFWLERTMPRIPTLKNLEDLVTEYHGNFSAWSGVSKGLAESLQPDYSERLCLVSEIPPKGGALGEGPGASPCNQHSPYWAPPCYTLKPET

T4: CD122/CD132 complex on HEK-Blue IL-2 cells (UniProt P14784 27-551; P31785 23-369, limits assumed)
T4 sequence (looked up) 1: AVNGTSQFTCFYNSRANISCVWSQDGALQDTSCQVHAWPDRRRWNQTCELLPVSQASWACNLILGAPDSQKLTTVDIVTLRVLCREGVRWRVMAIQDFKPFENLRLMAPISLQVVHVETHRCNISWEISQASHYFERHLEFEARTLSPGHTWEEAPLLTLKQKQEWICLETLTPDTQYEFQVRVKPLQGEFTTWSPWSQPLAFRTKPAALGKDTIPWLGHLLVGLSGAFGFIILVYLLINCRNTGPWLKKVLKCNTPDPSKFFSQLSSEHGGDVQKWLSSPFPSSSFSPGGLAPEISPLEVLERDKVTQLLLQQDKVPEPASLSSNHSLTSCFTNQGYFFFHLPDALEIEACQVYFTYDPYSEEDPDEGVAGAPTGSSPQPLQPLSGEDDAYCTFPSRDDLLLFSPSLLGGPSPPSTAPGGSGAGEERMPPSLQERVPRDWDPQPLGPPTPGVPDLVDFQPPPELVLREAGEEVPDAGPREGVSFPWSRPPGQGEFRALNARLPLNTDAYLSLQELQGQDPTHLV
T4 sequence (looked up) 2: T3 sequence (looked up)

T5: human CD122 on HEK293 cells (human, UniProt P14784 27-551)
T5 construct: whole, on cells; also called cell surface CD122
T5 sequence (looked up): T4 sequence (looked up) 1

T6: recombinant cyno CD122 (cynomolgus, UniProt Q38J85 27-239, limits assumed)
T6 construct: also called cynomolgus CD122
T6 sequence (looked up): T1 sequence (looked up) with Q7R, A66T, T74A, L83M, V92M, E127K, L158M

T7: recombinant cyno CD132 (cynomolgus, UniProt A0A2K5VGJ6 23-262)
T7 construct: also called cynomolgus CD132
T7 sequence: T2 sequence (looked up) with T14A, A16T, T22S, H141R, T228S

B1: FIT2019-86b (bispecific antibody, human IgG1, kappa, L234A L235A)
chain 1: not shown
chain 2: QVQLQQSGPELVKPGASVKMSCKASGYRFSDYVISWVKQRSGQGLEWIGEIYPGDGNTYYNEMFKGRATLTADKSPNTAYMKLSSLTSEDSALYFCARGSYTYDNYAMDFWGQGTSVTVSSASTKGPSVFPLAPSSKSTSGGTAALGCLVKDYFPEPVTVSWNSGALTSGVHTFPAVLQSSGLYSLSSVVTVPSSSLGTQTYICNVNHKPSNTKVDKKVEPKSC
chain 3: DIQMTQTPSSLSASLGDRVTISCRASQDISNYLNWYQQKPDGTVKLLIYYKSRLHSGVPSRFSGSGSGTEYSLTINNLEQEDFATYFCHQGHTIPFTFGSGTKLEIKRTVAAPSVFIFPPSDEQLKSGTASVVCLLNNFYPREAKVQWKVDNALQSGNSQESVTEQDSKDSTYSLSSTLTLSKADYEKHKVYACEVTHQGLSSPVTKSFNRGEC
notes: FIT-Ig with mouse V domains of CD122-mAb77 (outer Fab) and CD132-mAb17 (inner Fab), human constant domains; also called anti-CD122/CD132 FIT2019-86b
B2: huFIT2019-86b-51 (bispecific antibody, human IgG1, kappa, L234A L235A)
chain 1: not shown
chain 2: EVQLVQSGAEVKKPGASVKVSCKASGYTFTDYVISWVRQATGQGLEWMGEIYPGDAQTYYNEMFKGRVTMTRDTSISTAYMELSSLRSEDTAVYYCARGSYTYDNYAMDFWGQGTTVTVSSASTKGPSVFPLAPSSKSTSGGTAALGCLVKDYFPEPVTVSWNSGALTSGVHTFPAVLQSSGLYSLSSVVTVPSSSLGTQTYICNVNHKPSNTKVDKKVEPKSC
chain 3: not shown
notes: also called huFIT2019-8b-51
B3: Duo2019-86b (bispecific antibody, human IgG1, kappa, L234A L235A)
heavy 1: EVQLQQPGSELVRPGASVKLSCKASGYTFTSYWMHWMKQRPGQGLEWIGHIYLGGGATNYAEKFRSKATLTADTSSSTAYMQLSSLTSEDSAVYYCTRSQPYYYGMDSWGQGTSVTVSSASTKGPSVFPLAPSSKSTSGGTAALGCLVKDYFPEPVTVSWNSGALTSGVHTFPAVLQSSGLYSLSSVVTVPSSSLGTQTYICNVNHKPSNTKVDKKVEPKSCDKTHTCPPCPAPEAAGGPSVFLFPPKPKDTLMISRTPEVTCVVVDVSHEDPEVKFNWYVDGVEVHNAKTKPREEQYNSTYRVVSVLTVLHQDWLNGKEYKCKVSNKALPAPIEKTISKAKGQPREPQVYTLPPSREEMTKNQVSLTCLVKGFYPSDIAVEWESNGQPENNYKTTPPVLDSDGSFLLYSKLTVDKSRWQQGNVFSCSVMHEALHNHYTQKSLSLSPGK
light 1: B1 chain 3
heavy 2: QVQLQQSGPELVKPGASVKMSCKASGYRFSDYVISWVKQRSGQGLEWIGEIYPGDGNTYYNEMFKGRATLTADKSPNTAYMKLSSLTSEDSALYFCARGSYTYDNYAMDFWGQGTSVTVSSASTKGPSVFPLAPSSKSTSGGTAALGCLVKDYFPEPVTVSWNSGALTSGVHTFPAVLQSSGLYSLSSVVTVPSSSLGTQTYICNVNHKPSNTKVDKKVEPKSCDKTHTCPPCPAPEAAGGPSVFLFPPKPKDTLMISRTPEVTCVVVDVSHEDPEVKFNWYVDGVEVHNAKTKPREEQYNSTYRVVSVLTVLHQDWLNGKEYKCKVSNKALPAPIEKTISKAKGQPREPQVYTLPPSREEMTKNQVSLTCLVKGFYPSDIAVEWESNGQPENNYKTTPPVLDSDGSFFLYSRLTVDKSRWQQGNVFSCSVMHEALHNHYTQKSLSLSPGK
light 2: DVLMTQTPLSLPVSLGDQASISCRSSQNIVHSNGNTYLEWYLQKPGQSPKLLIYKVSNRFSGVPDRFSGSGSGTDFTLKISRVEAEDLGLYYCFQGSHIPWTFGGGTKLEIKRTVAAPSVFIFPPSDEQLKSGTASVVCLLNNFYPREAKVQWKVDNALQSGNSQESVTEQDSKDSTYSLSSTLTLSKADYEKHKVYACEVTHQGLSSPVTKSFNRGEC
notes: 1+1 asymmetric IgG1 made by Fab-arm exchange; printed both as Duo2019-86 and Duo2019-86b

Tests used:
recombinant human CD122 [1] = target: T1, recombinant human CD122; experiment: ELISA, plate coated with 1 µg/mL recombinant human CD122
Description: (§1) Plates were washed three times with PBST, added HRP labeled anti-human IgG secondary antibody and incubated at RT for 15 minutes, then washed 5 times with PBST. For color development, 100 μl of tetramethylbenzidine (TMB) chromogenic solution was added to each well, the reaction was quenched by 1 N HCl and absorbance at 450 nm was measured on a microplate reader. Binding signals were plotted against antibody concentration with GraphPad Prism 6.0 software and EC₅₀ values were calculated accordingly.

recombinant human CD132 [2] = target: T2, recombinant human CD132; experiment: ELISA, plate coated with 1 µg/mL recombinant human CD132
Description: as §1

[3] = target: T3, human CD132 on HEK293 cells; experiment: Flow cytometry (MFI) on HEK293 cells overexpressing human CD132; the table gives no unit, the axis is Fab conc.(nM); the curve has no upper plateau in the range shown
Description: (§2) Briefly, a 96-well plate was seeded with 3×10⁵ cells each well, centrifuged at 400 g for 5 minutes and supernatants discarded, then added 100 μl of antibody (5× serial dilutions, 0.0064 to 100 nM) each well and gently mixed. After 60 minutes of incubation at 4° C., plates were washed several times to remove excess antibodies. Secondary fluorochrome-conjugated goat anti-human IgG antibody (Jackson Immunoresearch, Cat No. 109-606-098) was then added and incubated with cells at 4° C. for 20 minutes. After another round of centrifugation and washing, cells were resuspended in assay buffer (1X PBS containing 2% FBS) for reading on a flow-cytometer. Median Fluorescence Intensity (MFI) readouts were plotted against antibody concentration and analyzed with GraphPad Prism 6.0 software.

[4] = target: T4, CD122/CD132 complex on HEK-Blue IL-2 …; experiment: cell-based or functional assay
[5] = target: T5, human CD122 on HEK293 cells; experiment: Flow cytometry (MFI) on HEK293 cells overexpressing human CD122; the table gives no unit, the axis is Fab conc.(nM)
Description: as §2

[6] = target: T3, human CD132 on HEK293 cells; experiment: Flow cytometry (Median-APC) on HEK293/CD132 cells; the box gives no unit, the axis is Ab conc.(nM); the curve has no upper plateau in the range shown
Description: as §2

recombinant human CD132 [7] = target: T2, recombinant human CD132; experiment: GCI (WAVEsystem), FIT-Ig captured by anti-human IgG Fc, antigen in solution
Description: (§3) Binding affinity and kinetics constants of humanized CD122/CD132 FIT-Ig were determined using a label-free biosensor on WAVEsystem (Creoptix AG, Switzerland) by grating-coupled interferometry (GCI). Briefly, a PCP WAVEchip (Creoptix AG) was pre-immobilized with goat anti-human IgG Fc antibody to a density of 3830 pg/mm² by amine coupling, and used to capture humanized CD122/CD132 FIT-Ig generated from Example 3.2.1 to a density of ˜90 pg/mm², then exposed to recombinant human/cyno CD122 or CD132 serially diluted (3× dilutions from 200 nM to […] for human CD122, human CD132 and cyno CD132, respectively; and from 1000 nM to 1.37 nM for cyno CD122) in 1X HBS-EP+ buffer (Cytiva, Cat No. BR100669) by injection at 60 μL/min for 250s to assess association, followed by 1200s dissociation. After each round of association and dissociation, WAVEchip surface was regenerated by subject to pH 1.5 Glycine-HCl buffer injection at 60 μL/min for 120s. Sensorgrams were recorded at 25° C., the data were analyzed on WAVEcontrol (Creoptix AG) and double referenced by subtracting the signals from blank injections and the reference channel. A Langmuir 1:1 model was used for data fitting.

recombinant human CD122 [8] = target: T1, recombinant human CD122; experiment: as above
Description: as §3

recombinant cyno CD122 = target: T6, recombinant cyno CD122; experiment: as above
Description: as §3

recombinant cyno CD132 = target: T7, recombinant cyno CD132; experiment: as above
Description: as §3

[9] = target: T5, human CD122 on HEK293 cells; experiment: Flow cytometry (Median-APC) on HEK293/CD122 cells; the box gives no unit, the axis is Ab conc.(nM)
Description: as §2

[10] = target: T3, human CD132 on HEK293 cells; experiment: Flow cytometry (MFI) on HEK293 cells overexpressing human CD132; the table gives no unit, the axis is Fab conc.(nM)
Description: as §2

Binder | EC50 (recombinant human CD122 [1]) | EC50 (recombinant human CD132 [2]) | EC50 [3] | EC50 from SEAP reporter gene assay [4] | EC50 [5] | EC50 [6] | Kd (recombinant human CD132 [7]) | koff (recombinant human CD132 [7]) | kon (recombinant human CD132 [7]) | Kd (recombinant human CD122 [8]) | koff (recombinant human CD122 [8]) | kon (recombinant human CD122 [8]) | Kd (recombinant cyno CD122) | koff (recombinant cyno CD122) | kon (recombinant cyno CD122) | Kd (recombinant cyno CD132) | koff (recombinant cyno CD132) | kon (recombinant cyno CD132) | EC50 [9] | EC50 [10]
B1 | 0.324 nM | 0.662 nM | 75.6 nM | 0.125 nM | 2.2 nM | – | – | – | – | – | – | – | – | – | – | – | – | – | – | –
B2 | – | – | – | 0.19 nM | – | 17.8 nM | 9.02 nM | 0.000339 s⁻¹ | 37500 M⁻¹ s⁻¹ | 17.1 nM | 0.00107 s⁻¹ | 62700 M⁻¹ s⁻¹ | 91.6 nM | 0.00697 s⁻¹ | 76100 M⁻¹ s⁻¹ | 10.6 nM | 0.000286 s⁻¹ | 27000 M⁻¹ s⁻¹ | 5.27 nM | –
B3 | – | – | – | – | 1.63 nM | – | – | – | – | – | – | – | – | – | – | – | – | – | – | 11.4 nM
